The chains are these.
B1: ATXN2 peptide 913-928 (Ataxin-2), 16-mer library wild type / PABPC1 PABC (PABPC1 PABC domain, residues 544-623) (parent complex)
chain 1: TLNPNAKEFNPRSFSQ
chain 2: PLTASMLASAPPQEQKQMLGERLFPLIQAMHPTLAGKITGMLLEIDNSELLHMLESPESLRSKVDEAVAVLQAHQAKEAA

These results are taken from publication PMC12102759 (2025).

In the assay the parent is B1. Description: proteomic peptide phage display deep mutational scan (ProP-PD DMS): M13 P8 16-mer library selected against immobilised GST-tagged bait for four days (rounds), NGS of the eluted pools per day and pseudo-replica; bait immobilised on MaxiSorp plates (10 µg), library pre-cleared on GST, 2 h binding at 4 °C, five washes; one round per day, days 1-4; value from days 2 and 3.
Regarding chain 1 S15G, the screen value is 0.00895 average fractional NGS count over selection days 2 and 3 (reads of this peptide / all reads for the bait, averaged over …. The figure for chain 1 S15P is 0.012 average fractional NGS count over selection days 2 and 3 (reads of this peptide / all reads for the bait, averaged over …. As to chain 1 S15W, the screen value was 0.00221 average fractional NGS count over selection days 2 and 3 (reads of this peptide / all reads for the bait, averaged over …. For chain 1 S15A, the screen value is 0.000937 average fractional NGS count over selection days 2 and 3 (reads of this peptide / all reads for the bait, averaged over …. The figure for chain 1 S15F is 0.000374 average fractional NGS count over selection days 2 and 3 (reads of this peptide / all reads for the bait, averaged over …; for chain 1 E8N it is 0.00138 average fractional NGS count over selection days 2 and 3 (reads of this peptide / all reads for the bait, averaged over …. The figure for chain 1 E8M is 0.00043 average fractional NGS count over selection days 2 and 3 (reads of this peptide / all reads for the bait, averaged over …; for chain 1 E8A it is 0.000246 average fractional NGS count over selection days 2 and 3 (reads of this peptide / all reads for the bait, averaged over …; for chain 1 E8T it is 0.00103 average fractional NGS count over selection days 2 and 3 (reads of this peptide / all reads for the bait, averaged over …. Take chain 1 E8Y: the screen value is 0.000547 average fractional NGS count over selection days 2 and 3 (reads of this peptide / all reads for the bait, averaged over …. In the case of chain 1 E8S it was 0.00107 average fractional NGS count over selection days 2 and 3 (reads of this peptide / all reads for the bait, averaged over …. As for chain 1 E8V, the screen value is 0.00108 average fractional NGS count over selection days 2 and 3 (reads of this peptide / all reads for the bait, averaged over …. In the case of chain 1 E8H, the screen value was 0.00041 average fractional NGS count over selection days 2 and 3 (reads of this peptide / all reads for the bait, averaged over ….

For chain 1 S13N, the screen value is 0.00133 average fractional NGS count over selection days 2 and 3 (reads of this peptide / all reads for the bait, averaged over …. In the case of chain 1 S13G it was 0.00314 average fractional NGS count over selection days 2 and 3 (reads of this peptide / all reads for the bait, averaged over …. The figure for chain 1 S13W is 0.000472 average fractional NGS count over selection days 2 and 3 (reads of this peptide / all reads for the bait, averaged over …. Turning to chain 1 S13P, the screen value was 0.0016 average fractional NGS count over selection days 2 and 3 (reads of this peptide / all reads for the bait, averaged over …. The figure for chain 1 S13L is 0.0013 average fractional NGS count over selection days 2 and 3 (reads of this peptide / all reads for the bait, averaged over …. For chain 1 S13T, the screen value is 0.00197 average fractional NGS count over selection days 2 and 3 (reads of this peptide / all reads for the bait, averaged over ….

Take chain 1 S13A: the screen value is 0.00421 average fractional NGS count over selection days 2 and 3 (reads of this peptide / all reads for the bait, averaged over …. In the case of chain 1 S13Y it was 0.00087 average fractional NGS count over selection days 2 and 3 (reads of this peptide / all reads for the bait, averaged over …. In the case of chain 1 S13Q it was 0.000347 average fractional NGS count over selection days 2 and 3 (reads of this peptide / all reads for the bait, averaged over …; in that of chain 1 R12F, 0.000951 average fractional NGS count over selection days 2 and 3 (reads of this peptide / all reads for the bait, averaged over …; in that of chain 1 R12E, 0.000493 average fractional NGS count over selection days 2 and 3 (reads of this peptide / all reads for the bait, averaged over …. As to chain 1 R12H, the screen value is 0.00563 average fractional NGS count over selection days 2 and 3 (reads of this peptide / all reads for the bait, averaged over …. In the case of chain 1 R12D it was 0.00156 average fractional NGS count over selection days 2 and 3 (reads of this peptide / all reads for the bait, averaged over …. In the case of chain 1 R12N it was 0.00143 average fractional NGS count over selection days 2 and 3 (reads of this peptide / all reads for the bait, averaged over …. In the case of chain 1 R12K it was 0.000537 average fractional NGS count over selection days 2 and 3 (reads of this peptide / all reads for the bait, averaged over …; in that of chain 1 R12V, 0.00419 average fractional NGS count over selection days 2 and 3 (reads of this peptide / all reads for the bait, averaged over …; in that of chain 1 R12Y, 0.00157 average fractional NGS count over selection days 2 and 3 (reads of this peptide / all reads for the bait, averaged over ….

With chain 1 R12G, the screen value is 0.000653 average fractional NGS count over selection days 2 and 3 (reads of this peptide / all reads for the bait, averaged over …. Consider chain 1 R12Q, for which the screen value was 0.000478 average fractional NGS count over selection days 2 and 3 (reads of this peptide / all reads for the bait, averaged over …. In the case of chain 1 R12M it was 0.00123 average fractional NGS count over selection days 2 and 3 (reads of this peptide / all reads for the bait, averaged over …; in that of chain 1 R12L, 0.000524 average fractional NGS count over selection days 2 and 3 (reads of this peptide / all reads for the bait, averaged over ….

Take chain 1 F14P: the screen value was 0.00134 average fractional NGS count over selection days 2 and 3 (reads of this peptide / all reads for the bait, averaged over …. Take chain 1 F14L: the screen value was 0.00171 average fractional NGS count over selection days 2 and 3 (reads of this peptide / all reads for the bait, averaged over …. In the case of chain 1 F14V it was 0.00125 average fractional NGS count over selection days 2 and 3 (reads of this peptide / all reads for the bait, averaged over …; in that of chain 1 F14N, 0.00127 average fractional NGS count over selection days 2 and 3 (reads of this peptide / all reads for the bait, averaged over …; in that of chain 1 F14H, 0.00184 average fractional NGS count over selection days 2 and 3 (reads of this peptide / all reads for the bait, averaged over …. As for chain 1 F14I, the screen value was 0.000362 average fractional NGS count over selection days 2 and 3 (reads of this peptide / all reads for the bait, averaged over ….

On to chain 1 F14Y, for which the screen value was 0.00139 average fractional NGS count over selection days 2 and 3 (reads of this peptide / all reads for the bait, averaged over …. The figure for chain 1 F14A is 0.000336 average fractional NGS count over selection days 2 and 3 (reads of this peptide / all reads for the bait, averaged over …; for chain 1 F14E it is 0.000387 average fractional NGS count over selection days 2 and 3 (reads of this peptide / all reads for the bait, averaged over …. As to chain 1 K7D, the screen value is 0.00119 average fractional NGS count over selection days 2 and 3 (reads of this peptide / all reads for the bait, averaged over …. In the case of chain 1 K7S, the screen value is 0.00126 average fractional NGS count over selection days 2 and 3 (reads of this peptide / all reads for the bait, averaged over …. For the variant chain 1 K7G, the screen value is 0.00102 average fractional NGS count over selection days 2 and 3 (reads of this peptide / all reads for the bait, averaged over ….

For chain 1 K7Y, the screen value was 0.0438 average fractional NGS count over selection days 2 and 3 (reads of this peptide / all reads for the bait, averaged over …. The figure for chain 1 K7I is 0.000344 average fractional NGS count over selection days 2 and 3 (reads of this peptide / all reads for the bait, averaged over …; for chain 1 K7T it is 0.000636 average fractional NGS count over selection days 2 and 3 (reads of this peptide / all reads for the bait, averaged over …; for chain 1 K7H it is 0.0027 average fractional NGS count over selection days 2 and 3 (reads of this peptide / all reads for the bait, averaged over …. With chain 1 K7V, the screen value is 0.000726 average fractional NGS count over selection days 2 and 3 (reads of this peptide / all reads for the bait, averaged over …. With chain 1 K7P, the screen value is 0.000615 average fractional NGS count over selection days 2 and 3 (reads of this peptide / all reads for the bait, averaged over …. On to chain 1 K7A, for which the screen value was 0.0221 average fractional NGS count over selection days 2 and 3 (reads of this peptide / all reads for the bait, averaged over …. In the case of chain 1 K7W it was 0.00309 average fractional NGS count over selection days 2 and 3 (reads of this peptide / all reads for the bait, averaged over …. In the case of chain 1 K7F it was 0.00539 average fractional NGS count over selection days 2 and 3 (reads of this peptide / all reads for the bait, averaged over ….

For the variant chain 1 K7Q, the screen value was 0.000831 average fractional NGS count over selection days 2 and 3 (reads of this peptide / all reads for the bait, averaged over ….

For chain 1 N3Q, the screen value was 0.00023 average fractional NGS count over selection days 2 and 3 (reads of this peptide / all reads for the bait, averaged over …. The figure for chain 1 N3D is 0.00069 average fractional NGS count over selection days 2 and 3 (reads of this peptide / all reads for the bait, averaged over …; for chain 1 N3S it is 0.0019 average fractional NGS count over selection days 2 and 3 (reads of this peptide / all reads for the bait, averaged over …. In the case of chain 1 L2W it was 0.000443 average fractional NGS count over selection days 2 and 3 (reads of this peptide / all reads for the bait, averaged over …; in that of chain 1 L2M, 0.000384 average fractional NGS count over selection days 2 and 3 (reads of this peptide / all reads for the bait, averaged over …; in that of chain 1 L2Y, 0.000336 average fractional NGS count over selection days 2 and 3 (reads of this peptide / all reads for the bait, averaged over …. In the case of chain 1 L2F it was 0.000314 average fractional NGS count over selection days 2 and 3 (reads of this peptide / all reads for the bait, averaged over …. Turning to chain 1 F9W, the screen value was 0.00363 average fractional NGS count over selection days 2 and 3 (reads of this peptide / all reads for the bait, averaged over …. Take chain 1 N5F: the screen value is 0.000799 average fractional NGS count over selection days 2 and 3 (reads of this peptide / all reads for the bait, averaged over …. Turning to chain 1 N5M, the screen value is 0.0888 average fractional NGS count over selection days 2 and 3 (reads of this peptide / all reads for the bait, averaged over …. The figure for chain 1 N5L is 0.00771 average fractional NGS count over selection days 2 and 3 (reads of this peptide / all reads for the bait, averaged over …; for chain 1 N5Q it is 0.00052 average fractional NGS count over selection days 2 and 3 (reads of this peptide / all reads for the bait, averaged over …; for chain 1 N5K it is 0.00157 average fractional NGS count over selection days 2 and 3 (reads of this peptide / all reads for the bait, averaged over …. For chain 1 N5H, the screen value is 0.00507 average fractional NGS count over selection days 2 and 3 (reads of this peptide / all reads for the bait, averaged over …. The figure for chain 1 N5G is 0.00173 average fractional NGS count over selection days 2 and 3 (reads of this peptide / all reads for the bait, averaged over …; for chain 1 N5A it is 0.00056 average fractional NGS count over selection days 2 and 3 (reads of this peptide / all reads for the bait, averaged over …; for chain 1 N5I it is 0.00126 average fractional NGS count over selection days 2 and 3 (reads of this peptide / all reads for the bait, averaged over …. The figure for chain 1 N5V is 0.0117 average fractional NGS count over selection days 2 and 3 (reads of this peptide / all reads for the bait, averaged over …; for chain 1 N5T it is 0.00242 average fractional NGS count over selection days 2 and 3 (reads of this peptide / all reads for the bait, averaged over ….
